Test results taken from paper PMC3665621 (Nuclear medicine and biology, 2013).

Legend:
cathepsin B = settings: room temperature, up to 96 hours
[1] = system: HPAC tumor-bearing SCID mice; settings: mouse, in vivo

Row | Substance | cleaved bond (cathepsin B) | increase of tumor accumulation from 24 h to 72 h post-injection [1] [%] | lower liver retention compared to control (177Lu-MAC0) [1] [fold]
1 | DO3A(tBu)3-G- (D)S(tBu)-(D)S(tBu)-G- G-G-F | G-G, 24 h | – | –
2 | X = GSS, Y = PMGLP [177Lu-MAC2] | – | 113 | 2.1
